Data on 1 molecule can be found in patent publication US20080050361A1, “STAP[…] […] ANTI-INFECTIVES” (priority 2004, published 2008).

The nature of this test: Heme binding by native and mutant forms of GST-IsdA (electronic spectra, A407/A280). The note with it: GST-IsdA fusion proteins as expressed and isolated from E. coli; heme scavenged from E. coli cytoplasm; room temperature.

Experimental: Wild type and point mutant proteins were purified as expressed from E. coli and relative heme binding was assessed based upon the ability of the proteins, all expressed in an equivalent fashion, to scavenge and retain association with heme derived from the cytoplasm of E. coli Proteins were adjusted to an equivalent concentration and electronic spectra were recorded using a Cary 500 spectrophotometer (Varian Inc.) with a 1 cm path length and 1 mL quartz cuvettes. All recordings were taken at room temperature.

B1: IsdA: full length (excluding signal peptide and C-terminal sorting sequences) IsdA, amino acids 48-316, GST fusion expressed in E. coli (protein, listed as Staphylococcus aureus)
chain: TEATNATNNQSTQVSQATSQPINFQVQKDGSSEKSHMDDYMQHPGKVIKQNNKYYFQTVLNNASFWKEYKFYNANNQELATTVVNDNKKADTRTINVAVEPGYKSLTTKVHIVVPQINYNHRYTTHLEFEKAIPTLADAAKPNNVKPVQPKPAQPKTPTEQTKPVQPKVEKVKPTVTTTSKVEDNHSTKVVSTDTTKDQTKTQTAHTVKTAQTAQEQNKVQTPVKDVATAKSESNNQAVSDNKSQQTNKVTKHNETPKQASKAKELPKT
modifications: GST fusion
Regarding B1, the A407/A280 ratio was 0.629.
